Measurements: publication PMC10156788, “Molecular architecture of the Gαi-bound TRPC5 ion channel” (Nature Communications, 2023)

Legend:
[1] = target: T1, EGFP-tagged human TRPC5EM (amino acids 1 to 765) in lipid nanodiscs (human, UniProt Q9UL62 1-765); experiment: cell-based or functional assay
T1 sequence (looked up): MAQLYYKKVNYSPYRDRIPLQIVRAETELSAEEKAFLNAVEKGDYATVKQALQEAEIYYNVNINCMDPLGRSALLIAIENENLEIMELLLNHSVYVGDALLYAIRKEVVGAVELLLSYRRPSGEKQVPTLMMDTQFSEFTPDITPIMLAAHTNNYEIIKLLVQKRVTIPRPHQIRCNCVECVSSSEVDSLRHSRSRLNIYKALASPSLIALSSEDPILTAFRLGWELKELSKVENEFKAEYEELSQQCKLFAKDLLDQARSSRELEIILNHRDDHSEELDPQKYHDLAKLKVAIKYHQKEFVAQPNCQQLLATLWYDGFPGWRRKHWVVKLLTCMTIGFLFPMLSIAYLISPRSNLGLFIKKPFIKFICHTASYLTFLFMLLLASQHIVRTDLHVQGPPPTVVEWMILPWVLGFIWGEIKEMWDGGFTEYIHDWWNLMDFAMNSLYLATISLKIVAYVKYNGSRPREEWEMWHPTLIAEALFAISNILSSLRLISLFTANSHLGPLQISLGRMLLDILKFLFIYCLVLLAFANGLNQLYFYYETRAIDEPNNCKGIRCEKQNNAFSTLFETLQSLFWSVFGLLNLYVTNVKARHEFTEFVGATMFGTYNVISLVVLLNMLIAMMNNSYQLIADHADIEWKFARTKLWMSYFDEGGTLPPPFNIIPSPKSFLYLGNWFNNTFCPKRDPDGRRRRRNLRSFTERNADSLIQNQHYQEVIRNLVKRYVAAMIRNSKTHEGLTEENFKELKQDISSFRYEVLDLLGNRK

[2] = target: T1, EGFP-tagged human TRPC5EM (amino acids …); experiment: BLI; BLItz, AR2G biosensors; EGFP-tagged TRPC5 in lipid nanodiscs (500 nM) immobilised by NHS/EDC; GTP-activated Gαi3^Q204L flowed at 0.31-1.25 μM, 300 s association, 300 s dissociation; 20 mM HEPES-NaOH pH 8.0, 150 mM NaCl; fitted by specific binding with Hill slope; conditions: both partners purified
[3] = target: T2, human TRPC5 (amino acids 1 to 765, TRPC5EM) in lipid nanodiscs, EGFP and Twin-StrepII-tag removed (human, UniProt Q9UL62 1-765); experiment: cryo-EM structure; TRPC5EM in MSP2N2/soybean lipid nanodiscs, alone or mixed with GTP-activated N-myristoylated Gαi3^Q204L at Gα:TRPC5 monomer = 6:1; Buffer A (50 mM Tris-HCl pH 8.0, 150 mM NaCl, 1 mM DTT) with 5 μM GTP; 2.5 mM CaCl2 added before vitrification; no PIP2; conditions: both partners purified
T2 construct: transient receptor potential canonical 5 (TRPC5), human, amino acids 1 to 765; C-terminal loop region (residues 766-973) truncated; Tags removed with HRV-3C protease after the complex with Gαi3 was formed; residues of the HRV-3C site may be left at the C-terminus; Reconstituted in MSP2N2 nanodiscs; also called TRPC5_(Class1); TRPC5_(Class2); source: HEK293S GnTI- suspension cells (BacMam), …
T2 sequence (looked up): T1 sequence (looked up)

B1: N-myristoylated human Gαi3^Q204L, GTP-activated (natural protein)
chain: TLSAEDKAAVERSKMIDRNLREDGEKAAKEVKLLLLGAGESGKSTIVKQMKIIHEDGYSEDECKQYKVVVYSNTIQSIIAIIRAMGRLKIDFGEAARADDARQLFVLAGSAEEGVMTPELAGVIKRLWRDGGVQACFSRSREYQLNDSASYYLNDLDRISQSNYIPTQQDVLRTRVKTTGIVETHFTFKDLYFKMFDVGGLRSERKKWIHCFEGVTAIIFCVALSDYDLVLAEDEEMNRMHESMKLFDSICNNKWFTETSIILFLNKKDLFEEKIKRSPLTICYPEYTGSNTYEEAAAYIQCQFEDLNRRKDTKEIYTHFTCATDTKNVQFVFDAVTDVIIKNNLKE
modifications: myristoylation at the N-terminal glycine
notes: hexa-histidine tag inserted between M119 and T120; Incubated with 1 mM GTP for 1 h at 30 °C before use; The His tag is internal and no cleavage is described; Myristoylation of the N-terminal glycine implies loss of the first methionine; also called myristoylated Gαi3^Q204L
fold increase in open probability (Po) by Gαi3 (14.6 μM against 0.07 μM) at physiological PIP2, excised inside-out patch [1]: ~7 fold
Kd [2]: 530 nM
stoichiometry N [3]: ≤ 4 Gαi3 per TRPC5 tetramer
